According to paper PMC8056383, “Entropic Inhibition: How the Activity of a AAA+ Machine Is Modulated by Its Substrate-Binding Domain” (ACS Chemical Biology, 2021):

Tests used:
[1] = target: the molecule itself; assay: native gel or EMSA; native polyacrylamide gel electrophoresis; assembly of ClpB and ΔNClpB (Figure S2)
[2] = target: the molecule itself; assay: native gel or EMSA; native gel electrophoresis in the presence of 2 mM ATP; assembly of the 23C-176C construct (Figure S1)

B1: Thermus thermophilus ClpB, full-length (natural protein)
chain: not shown
notes: ClpB, Thermus thermophilus, full-length protein (NTD, NBD1, MD, NBD2); also called TT ClpB; TT; ClpB; source: cloned into a pET28b vector, expressed and purified (protocol in the Supplementary Methods)
binding result [1]: binds

B2: ΔNClpB, Thermus thermophilus ClpB lacking the N-terminal domain (domain or fragment)
chain: not shown
notes: ClpB, Thermus thermophilus, variant beginning at residue 141 (Val); lacks the first 140 residues; In the smFRET experiments one S288C-S631C protomer labelled with AF488/AF594 sat in hexamers of unlabelled ΔNClpB; also called NTD-truncated ClpB; truncated variant; source: cloned into a pET28b vector, expressed and purified (protocol in the Supplementary Methods)
binding result [1]: binds

B3: 23C-176C double-cysteine mutant of full-length ClpB, labelled with Alexa Fluor 488 and Alexa Fluor 594 (natural protein)
chain: not shown
modifications: Alexa Fluor 488 and Alexa Fluor 594 (C5 maleimide) on the cysteines at 23 and 176
notes: The ATPase assay used the fully labelled protein. smFRET and FLCS used one labelled protomer in hexamers of WT ClpB; source: cloned into a pET28b vector, expressed and purified (protocol in the Supplementary Methods)
binding result [2]: binds
